From PMC10786891, “Massively parallel profiling of RNA-targeting CRISPR-Cas13d”
Numbering of substitutions follows the chain as printed. Names may count otherwise.

T1: EsCas13d, nuclease-dead (Eubacterium siraeum, UniProt B0MS50, R295A;H300A;R849A;H854A)
T1 sequence: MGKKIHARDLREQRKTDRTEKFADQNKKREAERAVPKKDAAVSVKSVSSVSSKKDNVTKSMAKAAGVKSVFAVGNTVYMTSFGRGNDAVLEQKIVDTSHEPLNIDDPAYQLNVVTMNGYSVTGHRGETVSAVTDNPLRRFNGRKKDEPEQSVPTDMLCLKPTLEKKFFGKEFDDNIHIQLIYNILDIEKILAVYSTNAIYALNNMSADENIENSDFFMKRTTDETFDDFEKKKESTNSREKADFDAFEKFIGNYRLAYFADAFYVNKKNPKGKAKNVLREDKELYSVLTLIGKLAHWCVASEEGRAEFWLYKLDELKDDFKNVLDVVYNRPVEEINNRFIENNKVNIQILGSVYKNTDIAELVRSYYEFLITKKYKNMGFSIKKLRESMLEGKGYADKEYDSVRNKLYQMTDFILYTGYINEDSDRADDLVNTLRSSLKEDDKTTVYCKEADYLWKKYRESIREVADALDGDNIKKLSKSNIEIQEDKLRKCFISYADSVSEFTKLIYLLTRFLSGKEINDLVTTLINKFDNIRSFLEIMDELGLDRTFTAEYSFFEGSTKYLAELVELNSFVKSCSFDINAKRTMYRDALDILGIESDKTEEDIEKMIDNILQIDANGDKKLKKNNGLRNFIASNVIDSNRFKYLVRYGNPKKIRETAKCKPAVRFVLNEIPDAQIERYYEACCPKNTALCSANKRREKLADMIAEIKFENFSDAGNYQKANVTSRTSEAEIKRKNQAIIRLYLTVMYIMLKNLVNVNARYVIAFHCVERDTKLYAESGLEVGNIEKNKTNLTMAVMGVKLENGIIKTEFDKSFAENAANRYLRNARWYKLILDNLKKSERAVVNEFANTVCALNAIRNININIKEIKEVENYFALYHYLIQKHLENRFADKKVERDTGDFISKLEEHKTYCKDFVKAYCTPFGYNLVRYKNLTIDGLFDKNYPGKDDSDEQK

B1: target 3 U2C,C6G (mixed)
RNA 1: CACCCGUGCAAAAUUGCAGGGGUCUAAAACGACCUGAAUAUUUCAGAUCAAA
RNA 2: GGGAAUGGAUCCACAUCUACGAAUUCGUUUUUGAUCUGAAAUAUUGAGGCCUGCAGAUCGGAAGAGCACACGU
B2: target 3 insG 3' of 10,insU 3' of 3 (mixed)
RNA 1: B1 RNA 1
RNA 2: GGGAAUGGAUCCACAUCUACGAAUUCGUUUUUGAUCUGAAAUGAUUCAGGUUCUGCAGAUCGGAAGAGCACACGU
B3: target 3 insC 3' of 11 (mixed)
RNA 1: B1 RNA 1
RNA 2: GGGAAUGGAUCCACAUCUACGAAUUCGUUUUUGAUCUGAAACUAUUCAGGUCUGCAGAUCGGAAGAGCACACGU
B4: target 3 MT (mixed)
RNA 1: B1 RNA 1
RNA 2: B1 RNA 2 with G46C, C50U
B5: target 3 U2A,A12G (mixed)
RNA 1: B1 RNA 1
RNA 2: B1 RNA 2 with A40G, G46C, C50A
B6: target 3 insG 3' of 8,insG 3' of 2 (mixed)
RNA 1: B1 RNA 1
RNA 2: B2 RNA 2 with G43A, A44U, U45G, U52G
B7: target 3 insU 3' of 22,insA 3' of 21 (mixed)
RNA 1: B1 RNA 1
RNA 2: GGGAAUGGAUCCACAUCUACGAAUUCGUUUUUAUGAUCUGAAAUAUUCAGGUCUGCAGAUCGGAAGAGCACACGU
B8: target 3 U2C (mixed)
RNA 1: B1 RNA 1
RNA 2: B1 RNA 2 with G46C
B9: target 3 C1U (mixed)
RNA 1: B1 RNA 1
RNA 2: B1 RNA 2 with G46C, C50U, C51U
B10: target 3 del8,del22 (mixed)
RNA 1: B1 RNA 1
RNA 2: GGGAAUGGAUCCACAUCUACGAAUUCGUUUUGAUCUGAAAUAUCAGGUCUGCAGAUCGGAAGAGCACACGU
B11: target 3 insU 3' of 5,insA 3' of 2 (mixed)
RNA 1: B1 RNA 1
RNA 2: B2 RNA 2 with G43A, A44U, U46C, C47A, A48U, U52A
B12: target 3 insG 3' of 6,insG 3' of 5 (mixed)
RNA 1: B1 RNA 1
RNA 2: B2 RNA 2 with G43A, A44U, U46C, C47G, U51G
B13: target 3 G4U,C6U (mixed)
RNA 1: B1 RNA 1
RNA 2: B1 RNA 2 with G46U, G48U, C50U
B14: target 3 insG 3' of 11,insU 3' of 4 (mixed)
RNA 1: B1 RNA 1
RNA 2: B2 RNA 2 with U42G, G43U, G50U, U51G
B15: target 3 insC 3' of 5,insG 3' of 1 (mixed)
RNA 1: B1 RNA 1
RNA 2: B2 RNA 2 with G43A, A44U, U46C, C47A, A48C, U52C, C53G
B16: target 3 U21C (mixed)
RNA 1: B1 RNA 1
RNA 2: B1 RNA 2 with U31C, G46C, C50U
B17: target 3 insU 3' of 11,insC 3' of 4 (mixed)
RNA 1: B1 RNA 1
RNA 2: B2 RNA 2 with G43U, G50C, U51G
B18: target 3 insA 3' of 22,insC 3' of 2 (mixed)
RNA 1: B1 RNA 1
RNA 2: GGGAAUGGAUCCACAUCUACGAAUUCGUUUAUUGAUCUGAAAUAUUCAGGUCCUGCAGAUCGGAAGAGCACACGU
B19: target 3 C6U,A11C (mixed)
RNA 1: B1 RNA 1
RNA 2: B1 RNA 2 with A41C, G46U, C50U
B20: target 3 U7A,U22A (mixed)
RNA 1: B1 RNA 1
RNA 2: B1 RNA 2 with U30A, U45A, G46C, C50U
B21: target 3 del5 (mixed)
RNA 1: B1 RNA 1
RNA 2: GGGAAUGGAUCCACAUCUACGAAUUCGUUUUUGAUCUGAAAUAUUCGGUCUGCAGAUCGGAAGAGCACACGU
B22: target 3 C1G (mixed)
RNA 1: B1 RNA 1
RNA 2: B1 RNA 2 with G46C, C50U, C51G
B23: target 3 C6G,A11G (mixed)
RNA 1: B1 RNA 1
RNA 2: B1 RNA 2 with A41G, C50U
B24: target 3 insA 3' of 22,insG 3' of 1 (mixed)
RNA 1: B1 RNA 1
RNA 2: B18 RNA 2 with C53G
B25: target 3 G3C,U8C (mixed)
RNA 1: B1 RNA 1
RNA 2: B1 RNA 2 with U44C, G46C, G49C, C50U
B26: target 3 insU 3' of 6,insU 3' of 6 (mixed)
RNA 1: B1 RNA 1
RNA 2: B2 RNA 2 with G43A, A44U, U46C, C47U, A48U, G49A, U51G
B27: target 3 insA 3' of 15,insU 3' of 1 (mixed)
RNA 1: B1 RNA 1
RNA 2: B2 RNA 2 with G38A, A39G, U42A, G43U, U52C, C53U
B28: target 3 C1U,A12G (mixed)
RNA 1: B1 RNA 1
RNA 2: B1 RNA 2 with A40G, G46C, C50U, C51U
B29: target 3 insU 3' of 3,insA 3' of 3 (mixed)
RNA 1: B1 RNA 1
RNA 2: B2 RNA 2 with G43A, A44U, U46C, C47A, A48G, G50U, U51A
B30: target 1 G15C,C22U (mixed)
RNA 1: CACCCGUGCAAAAAUGCAGGGGUCUAAAACUGAGCGGAUAACCUCUCUAUGG
RNA 2: GGGAAUGGAUCCACAUCUACGAAUUCGUAUCAUAGACAGGUUAUCCGCUCACCGAGAUCGGAAGAGCACACGU
B31: target 1 A20U,C21A (mixed)
RNA 1: B30 RNA 1
RNA 2: B30 RNA 2 with U30C, C31A, A32U, C37G
B32: target 1 insC 3' of 14 (mixed)
RNA 1: B30 RNA 1
RNA 2: GGGAAUGGAUCCACAUCUACGAAUUCGUACCAUAGAGACGGUUAUCCGCUCACCGAGAUCGGAAGAGCACACGU

Biological target: T1, EsCas13d, nuclease-dead
Assay: crRNA (strand 1, pre-loaded); Mg2+; 40 mM Tris-HCl pH 7.5, 150 mM NaCl, 6 mM MgCl2, 1 mM DTT, 0.1% Tween-20, 0.2 mg/ml BSA; 25 C; 10 min per concentration, then washed
Conditions: tags: His6-TwinStrep-SUMO cleaved; N-terminal SNAP kept (SNAP-Surface 488); label: 3' end held by stalled T7 RNA polymerase

Binder | Kd [nM]
B1 | 31.5 ± 4.5
B2 | 111 ± 28.5
B3 | 83.5 ± 29
B4 | 15.6 ± 0.185
B5 | 38 ± 6
B6 | 57 ± 27
B7 | 28 ± 4
B8 | 88.5 ± 18
B9 | 25.1 ± 3.15
B10 | 74.5 ± 13
B11 | 21.2 ± 3.65
B12 | 8.85 ± 0.8
B13 | 7.45 ± 0.85
B14 | 55.5 ± 10.5
B15 | 38.5 ± 13
B16 | 71 ± 18

Binder | Kd [nM]
B17 | 90 ± 26
B18 | 84.5 ± 23.5
B19 | 63 ± 17.6
B20 | 42.5 ± 7.25
B21 | 65.5 ± 12.5
B22 | 28.8 ± 4.15
B23 | 60 ± 18
B24 | 34.5 ± 7.5
B25 | 71 ± 6
B26 | 17.3 ± 1.2
B27 | 51 ± 5
B28 | 60 ± 13.5
B29 | 28.7 ± 3
B30 | ~70
B31 | 29 ± 5
B32 | 43 ± 6
